B4: carcinoembryonic antigen (CEA) immunopurified from LS174T colon carcinoma cell lysate (ligand, human, UniProt P06731 35-685, looked up)
chain: KLTIESTPFNVAEGKEVLLLVHNLPQHLFGYSWYKGERVDGNRQIIGYVIGTQQATPGPAYSGREIIYPNASLLIQNIIQNDTGFYTLHVIKSDLVNEEATGQFRVYPELPKPSISSNNSKPVEDKDAVAFTCEPETQDATYLWWVNNQSLPVSPRLQLSNGNRTLTLFNVTRNDTASYKCETQNPVSARRSDSVILNVLYGPDAPTISPLNTSYRSGENLNLSCHAASNPPAQYSWFVNGTFQQSTQELFIPNITVNNSGSYTCQAHNSDTGLNRTTVTTITVYAEPPKPFITSNNSNPVEDEDAVALTCEPEIQNTTYLWWVNNQSLPVSPRLQLSNDNRTLTLLSVTRNDVGPYECGIQNELSVDHSDPVILNVLYGPDDPTISPSYTYYRPGVNLSLSCHAASNPPAQYSWLIDGNIQQHTQELFISNITEKNSGLYTCQANNSASGHSRTTVKTITVSAELPKPSISSNNSKPVEDKDAVAFTCEPEAQNTTYLWWVNGQSLPVSPRLQLSNGNRTLTLFNVTRNDARAYVCGIQNSVSANRSDPVTLDVLYGPDTPIISPPDSSYLSGANLNLSCHSASNPSPQYSWRINGIPQQHTQVLFIAKITPNNNGTYACFVSNLATGRNNSIVKSITVSASGTSPGLSA
modifications: sialofucosylated (HECA-452-reactive) O-linked glycans
notes: mature; One entry for CEA from wild-type and from CD44-knockdown LS174T cells; Used as blot band or adsorbed on microspheres; also called CD66e; CEACAM5

The target in assay [1] is E-selectin-IgG Fc chimera (human) (UniProt P16581). In words: flow-based adhesion assay, sialidase-treated against untreated PCLP-coated microbeads on 10 µg/ml E-selectin at 1 dyn/cm2.
Assay [2] deals with B4. In words: cell-free flow-based adhesion assay, CEA-coated microspheres. An excerpt:
A cell-free flow-based adhesion assay (Hanley, et al., 20(2) FASEB J. 20(2), 337-339 (2006); Napier, et al., 282(6) J. BIOL. CHEM. 3433-3441 (2007)) was used to compare the adhesion of microspheres coated with CEA immunopurified from wildtype versus CD44-knockdown LS174T colon carcinoma cells to selectin substrates in shear flow. This technique allows quantitative comparisons of CEA-mediated adhesion to selectin substrates at prescribed CEA and selectin site densities under physiological flow conditions.
To test this hypothesis, the CEA-coated microspheres were perfused over purified selectin substrates under prescribed wall shear stress levels. As expected from blot rolling assays, microspheres coated with CEA from either cell type were capable of tethering and rolling over E- and L-, but not P-, selectin substrates, albeit with varying efficiencies (FIG. 8C-E). Most importantly, the extent of tethering of CD44-knockdown LS174T CEA-coated microspheres to E-selectin was lower than that of microspheres decorated with CEA from wildtype LS174T cells (FIG. 8C). […] In contrast, no difference was detected in either the extent of tethering (FIG. 8C) or the average rolling velocities (FIG. 8E) of microspheres coated with CEA from either cell type over L-selectin.

The target in assay [3] is T1, CD66c immunopurified from LS174T colon carcinoma cell lysate (human, UniProt P40199 35-320).
T1 construct: mature; Blot band or adsorbed on microspheres
T1 sequence (looked up): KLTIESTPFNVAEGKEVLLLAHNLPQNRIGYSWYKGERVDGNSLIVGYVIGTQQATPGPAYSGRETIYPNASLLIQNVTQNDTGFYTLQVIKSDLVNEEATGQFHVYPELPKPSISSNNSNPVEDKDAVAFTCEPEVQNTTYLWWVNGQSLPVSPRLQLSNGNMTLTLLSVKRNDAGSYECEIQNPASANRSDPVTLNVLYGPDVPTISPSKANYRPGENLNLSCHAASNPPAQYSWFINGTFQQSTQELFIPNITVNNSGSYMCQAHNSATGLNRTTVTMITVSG
The assay can be described thus: cell-free flow-based adhesion assay, CD66c-coated microspheres.

For assay [4], the target named is B4. In words: blot rolling assay with human peripheral blood lymphocytes at 0.5 dyn/cm2. An excerpt:
FIGS. 6A-6B provides the Western blot results from CD66e experiments. […] B: Selectin-dependent adhesion to SDS-PAGE resolved and blotted CEA immunoprecipitated from CD44-knockdown LS174T whole cell lysate. CHO-E cells, lymphocytes or CHO-P cells were perfused at the wall shear stress level of 0.5 dyn/cm² over SDS-PAGE immunoblots of immunopurified CD66e from whole cell lysate of CD44-knockdown LSI 74T cells. In select experiments, CHO-E cells and lymphocytes were pre-treated with an anti-E-selectin or an anti-L-selectin function blocking mAb (20 μg/ml), respectively, before use in blot rolling assays. The saturating concentration of the mAb (20 μg/ml) was maintained in the perfusion assays. Data represent the mean±S.E. of n≧3 experiments.
Fuhlbrigge et al., I 68 J. IMMUNOL. 5645-5651 (2002). The blots were placed under a parallel-plate flow chamber, and human peripheral blood lymphocytes or CHO transfectants, re-suspended at 5×10⁶ cells/ml in 90% D-PBS/I 0% glycerol, were perfused at the shear stress of 0.5 dyn/cm². Hanley et al., 20 FASEB J. 337-339 (2006); Napier et al., 282 J. BIOL. CHEM. 3433-3441 (2007); and Thomas et al., 283 J BIOL CHEM 15647-15655 (2008). Molecular weight markers were used as guides to aid placement of the flow chamber over stained bands of interest. […] Non-specific adhesion was assessed by perfusing 5 mM EDTA in the flow medium.

Assay [5] addresses T2, P-selectin on CHO cells stably transfected with the phosphatidylinositol glycan-linked extracellular domain … (UniProt P16109 42-771, limits assumed, phosphatidylinositol glycan-linked).
T2 construct: extracellular domain; also called P-selectin-expressing CHO cells
T2 sequence (looked up): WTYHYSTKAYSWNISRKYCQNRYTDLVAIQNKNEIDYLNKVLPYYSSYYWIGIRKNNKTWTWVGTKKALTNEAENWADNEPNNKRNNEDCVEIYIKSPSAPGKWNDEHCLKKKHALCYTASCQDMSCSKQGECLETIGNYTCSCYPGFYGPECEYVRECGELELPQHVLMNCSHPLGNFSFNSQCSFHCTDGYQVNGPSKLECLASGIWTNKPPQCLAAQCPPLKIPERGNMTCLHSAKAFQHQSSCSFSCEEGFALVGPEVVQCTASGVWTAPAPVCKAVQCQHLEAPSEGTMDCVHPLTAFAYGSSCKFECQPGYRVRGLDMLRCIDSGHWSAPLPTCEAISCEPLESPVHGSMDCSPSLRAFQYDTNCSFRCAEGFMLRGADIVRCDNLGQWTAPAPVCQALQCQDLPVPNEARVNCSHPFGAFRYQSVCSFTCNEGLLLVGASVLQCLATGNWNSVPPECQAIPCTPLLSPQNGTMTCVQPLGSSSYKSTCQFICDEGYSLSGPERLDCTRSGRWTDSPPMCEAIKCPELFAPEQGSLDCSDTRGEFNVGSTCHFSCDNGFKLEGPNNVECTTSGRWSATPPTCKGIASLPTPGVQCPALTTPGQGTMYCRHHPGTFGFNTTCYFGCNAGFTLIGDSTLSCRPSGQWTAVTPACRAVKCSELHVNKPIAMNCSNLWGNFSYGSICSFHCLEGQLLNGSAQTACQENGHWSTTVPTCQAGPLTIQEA
In words: blot rolling assay: CHO-P cells perfused at 0.5 dyn/cm2 over blot of immunopurified CEA. The procedure:
In select experiments, CHO-E cells and lymphocytes were pre-treated with an anti-E-selectin or an anti-L-selectin function blocking mAb (20 μg/ml), respectively, before use in blot rolling assays. The saturating concentration of the mAb (20 μg/ml) was maintained in the perfusion assays. Data represent the mean±S.E. of n≧3 experiments.
Fuhlbrigge et al., I 68 J. IMMUNOL. 5645-5651 (2002). The blots were placed under a parallel-plate flow chamber, and human peripheral blood lymphocytes or CHO transfectants, re-suspended at 5×10⁶ cells/ml in 90% D-PBS/I 0% glycerol, were perfused at the shear stress of 0.5 dyn/cm². Hanley et al., 20 FASEB J. 337-339 (2006); Napier et al., 282 J. BIOL. CHEM. […] Non-specific adhesion was assessed by perfusing 5 mM EDTA in the flow medium.
Although previous studies have reported that CEA and CEA-family members such as CD66c (Kuijpers, et al., 118(2) J CELL BIOL. 457-466 (1992)) bind E-selectin under static/no-flow conditions, the capacity of CEA to interact with E-selectin under physiologically relevant flow conditions as well as its potential cross-reactivity with L- and P-selectin have yet to be examined. […] The specificity of these adhesive interactions was assessed by incubating CHO-E cell suspensions or lymphocytes with an anti-E-selectin or an anti-L-selectin function-blocking mAb, respectively (FIG. 6B).

On to “podocalyxin-like protein (PCLP) immunopurified from LS174T colon carcinoma cell lysate (from UniProt O00592 23-558) (ligand)”, for which the reduction of binding after sialidase treatment in assay [1] is 80%.

B1: P-selectin-IgG Fc chimera (Fc fusion, human, UniProt P16109 42-321, looked up)
chain: WTYHYSTKAYSWNISRKYCQNRYTDLVAIQNKNEIDYLNKVLPYYSSYYWIGIRKNNKTWTWVGTKKALTNEAENWADNEPNNKRNNEDCVEIYIKSPSAPGKWNDEHCLKKKHALCYTASCQDMSCSKQGECLETIGNYTCSCYPGFYGPECEYVRECGELELPQHVLMNCSHPLGNFSFNSQCSFHCTDGYQVNGPSKLECLASGIWTNKPPQCLAAQCPPLKIPERGNMTCLHSAKAFQHQSSCSFSCEEGFALVGPEVVQCTASGVWTAPAPVCKA
notes: domain: lectin, epidermal growth factor and consensus repeat domains; From Wyeth External Research; immobilised on dishes; also called chimeric form of P-selectin-IgG Fc; not shown: human IgG1 (printed 'IgGi'); selectin domains linked to each arm of the IgG
Take B1: the binding result in assay [2] is recorded as “no binding (tested: 10 µg/ml P-selectin coating)”.

B2: E-selectin-IgG Fc chimera (Fc fusion, human, UniProt P16581 22-301, looked up)
chain: WSYNTSTEAMTYDEASAYCQQRYTHLVAIQNKEEIEYLNSILSYSPSYYWIGIRKVNNVWVWVGTQKPLTEEAKNWAPGEPNNRQKDEDCVEIYIKREKDVGMWNDERCSKKKLALCYTAACTNTSCSGHGECVETINNYTCKCDPGFSGLKCEQIVNCTALESPEHGSLVCSHPLGNFSYNSSCSISCDRGYLPSSMETMQCMSSGEWSAPIPACNVVECDAVTNPANGFVECFQNPGSFPWNTTCTFDCEEGFELMGAQSLQCTSSGNWDNEKPTCKA
notes: domain: lectin, epidermal growth factor and consensus repeat domains; From Wyeth External Research; immobilised on dishes (10 µg/ml for microbeads, 0.75 µg/ml for cells); also called chimeric form of E-selectin-IgG Fc; not shown: human IgG1 (printed 'IgGi'); selectin domains linked to each arm of the IgG
Turning to B2, the binding result in assay [3] was “no binding”.

B3: L-selectin on human peripheral blood lymphocytes (receptor, UniProt P14151 39-372, looked up)
chain: WTYHYSEKPMNWQRARRFCRDNYTDLVAIQNKAEIEYLEKTLPFSRSYYWIGIRKIGGIWTWVGTNKSLTEEAENWGDGEPNNKKNKEDCVEIYIKRNKDAGKWNDDACHKLKAALCYTASCQPWSCSGHGECVEIINNYTCNCDVGYYGPQCQFVIQCEPLEAPELGTMDCTHPLGNFSFSSQCAFSCSEGTNLTGIEETTCGPFGNWSSPEPTCQVIQCEPLSAPDLGIMNCSHPLASFSFTSACTFICSEGTELIGKKKTICESSGIWSNPSPICQKLDKSFSMIKEGDYNPLFIPVAVMVTAFSGLAFIIWLARRLKKGKKSKRSMNDPY
notes: whole, on cells; also called Lymphocyte (L-selectin); L-selectin-expressing human peripheral blood lymphocytes
On to B3, for which, in assay [4], the binding result is “binds”.
For B4, the binding result in assay [5] is “no binding”.
